Results taken from US20150183877A1 (Eli Lilly, published 2015).

Legend:
[1] = target: T1, IL-17 (SEQ ID NO:80), hIL-17 with C-terminal FlagHis tag (human); experiment: SPR (Biacore 3000): antibody captured on anti-human Fc, saturating IL-17 injected; RU of IL-17 per RU captured, relative to WT IgG
T1 construct: The entry holds the IL-17 part and the Flag-His tag
Procedure: The extent of HC/LC assembly is assessed using a kinetic Biacore experiment. Briefly, kinetic surface Plasmon resonance (SPR) experiments are performed using a Biacore 3000 (GE Healthcare). IgG-TCR proteins are captured onto CM5 sensorchip surfaces with an immobilized goat anti-human IgG-Fc polyclonal antibody (Jackson ImmunoResearch, Cat. #109-005-098). The goat polyclonal antibody immobilization is achieved by injecting the protein (at 50 μg/mL, pH 5) over an NHS/EDC activated sensorchip surface followed by blocking with ethanolamine (as described by manufacturer). The IgG or IgG-TCRs are captured onto the anti-human Fc sensorchip surface by injecting 10 μL of protein at 0.1 and 0.5 mg/mL using a 2 […]. Flow rates are increased to 10 μL/min followed by secondary 30 μL injections of IL-17 (SEQ ID NO:80) at 10 and 50 nM. Following a 15 minute dissociation period, the flow rate is increased to 60 μL/min and sensorchip surfaces are regenerated using two consecutive 10 μL injections of 0.1 M glycine, pH 2.0.
The experiment measures the percent activity by relating the amount of captured IgG or IgG-TCR (based on resonance units) with the secondary response generated using a saturating level of IL-17. The percent activity of each IgG-TCR is calculated based on a comparison with the WT IgG: […]

[2] = target: T2, hEGFR-Fc (Cat. #344-ER-050, R&D systems) (human, UniProt P00533 25-645); experiment: EGFR/HER-2 sandwich ELISA: hEGFR-Fc coat, compound titrated, detection with 0.2 µg/mL hHER-2-Histag and anti-His-HRP
T2 construct: Bought reagent; not shown: Fc part of the bought fusion
Procedure: (§1) Specifically, clear 96-well round bottom high binding microtiter plates (Greiner) are coated overnight at 2-8° C. with 50 μL/well 1 μg/mL hEGFR-Fc (Cat. #344-ER-050, R&D systems) in a 50 mM Na₂CO₃ pH 9.4 buffer. The plate is washed 4× times with PBST and blocked with 100 μL/well casein buffer (Pierce) for 1 hr at 37° C. The plate is then washed 4× times with PBST and test compounds are added at 50 μL/well and 30 μg/mL […] and serially diluted 1:2 down the plate. The test compounds are incubated on the plate for 1 hr at 37° C. The plate is washed 4× times with PBST and 50 μL/well 0.2 μg/mL hHER-2-Histag (Sino Biologics) is added for 1 hr at 37° C. The plate is then washed 4× times with PBST followed by the addition of a 50 μL/well secondary anti-Histag-HRP antibody (PENTA-His-HRP, Qiagen) diluted 1:1000 in PBST. The secondary antibody is incubated for 1 hr at 37° C. The plate is then washed 4× times with PBST and 100 μL/well 1-component 3,3′,5,5′-Tetramethylbenzidine (TMB) substrate is added (KPL laboratories). After approximately 10 minutes, 100 μL/well 1% H₃PO₄ (in H₂O) is added to quench the reaction. Absorbance (450 nm) of every well in the plate is read using a SpectraMax UV plate reader (Molecular Devices).

[3] = target: T3, hHER-2-Histag (Sino Biologics) (human, UniProt P04626 23-652); experiment: EGFR/HER-2 sandwich ELISA: hEGFR-Fc coat, test compound, detection with hHER-2-Histag and anti-His-HRP
T3 construct: Bought reagent; not shown: His tag
Procedure: as §1

T1 sequence (chain, as listed by the source limits assumed): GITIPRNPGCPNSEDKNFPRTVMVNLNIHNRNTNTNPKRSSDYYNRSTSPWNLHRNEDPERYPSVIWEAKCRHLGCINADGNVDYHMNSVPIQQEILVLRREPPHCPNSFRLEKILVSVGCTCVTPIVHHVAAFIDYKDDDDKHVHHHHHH

Binder	Activity by kinetic Biacore (percent activity relative to WT IgG) [1]	other results
TCR2 (anti-IL-17 IgG-TCR, Cα for CH1, Cβ for CL) (antibody, IgG-TCR format with IgG4PAA hinge-Fc) heavy: not shown light: DIVMTQTPLSLSVTPGQPASISCRSSRSLVHSRGNTYLHWYLQKPGQSPQLLIYKVSNRFIGVPDRFSGSGSGTDFTLKISRVEAEDVGVYYCSQSTHLPFTFGQGTKLEIKEDLNKVFPPEVAVFEPSEAEISHTQKATLVCLATGFFPDHVELSWWVNGKEVHSGVSTDPQPLKEQPALNDSRYCLSSRLRVSATFWQNPRNHFRCQVQFYGLSENDEWTQDRAKPVTQIVSAEAWGRADCGFTS	35%	–
C-mTCRpG1 (bispecific antibody, human IgG1, kappa, Anti-EGFR (matuzumab TCR-Fab) / anti-HER-2 (pertuzumab IgG-Fab) IgG-(Fab)2, Format 1) heavy: not shown light 1: not shown light 2: DIQMTQSPSSLSASVGDRVTITCSASSSVTYMYWYQQKPGKAPKLLIYDTSNLASGVPSRFSGSGSGTDYTFTISSLQPEDIATYYCQQWSSHIFTFGQGTKVEIKKVFPPEVAVFEPSEAEISHTQKATLVCLATGFFPDHVELSWWVNGKEVHSGVSTDPQPLKEQPALNDSRYCLSSRLRVSATFWQNPRNHFRCQVQFYGLSENDEWTQDRAKPVTQIVSAEAWGRADC	–	EC50 [2]: < 1 nM
mTCR-G1(-) (antibody, human IgG1, Matuzumab Fv in IgG-TCR format (anti-EGFR IgG-TCR control)) heavy: not shown light: DIQMTQSPSSLSASVGDRVTITCSASSSVTYMYWYQQKPGKAPKLLIYDTSNLASGVPSRFSGSGSGTDYTFTISSLQPEDIATYYCQQWSSHIFTFGQGTKVEIKKVFPPEVAVFEPSEAEISHTQKATLVCLATGFFPDHVELSWWVNGKEVHSGVSTDPQPLKEQPALNDSRYCLSSRLRVSATFWQNPRNHFRCQVQFYGLSENDEWTQDRAKPVTQIVSAEAWGRADC	–	binding result [3]: no binding (tested: 30 µg/mL (20 nM), serially diluted 1:2)
N-mTCRpG1 (bispecific antibody, human IgG1, kappa, Anti-EGFR (matuzumab TCR-Fab) / anti-HER-2 (pertuzumab IgG) IgG-(Fab)2, Format 3; also called N-mTCRpG1ds) heavy: not shown light 1: not shown light 2: DIQMTQSPSSLSASVGDRVTITCSASSSVTYMYWYQQKPGKAPKLLIYDTSNLASGVPSRFSGSGSGTDYTFTISSLQPEDIATYYCQQWSSHIFTFGQGTKVEIKKVFPPEVAVFEPSEAEISHTQKATLVCLATGFFPDHVELSWWVNGKEVHSGVSTDPQPLKEQPALNDSRYCLSSRLRVSATFWQNPRNHFRCQVQFYGLSENDEWTQDRAKPVTQIVSAEAWGRADC	–	EC50 [2]: 2 nM

The next lines start with results.

Activity by kinetic Biacore (percent activity relative to WT IgG) [1]	Binder	other results
17%	TCR3 (anti-IL-17 IgG-TCR, truncated Cβ for CH1, truncated Cα for CL) (antibody) heavy: not shown light: DIVMTQTPLSLSVTPGQPASISCRSSRSLVHSRGNTYLHWYLQKPGQSPQLLIYKVSNRFIGVPDRFSGSGSGTDFTLKISRVEAEDVGVYYCSQSTHLPFTFGQGTKLEIKIQNPDPAVYQLRDSKSSDKSVCLFTDFDSQTNVSQSKDSDVYITDKTVLDMRSMDFKSNSAVAWSNKSDFACANAFNNSIIPEDTFFPSPESSCDVK	–
54%	TCR4 (anti-IL-17 IgG-TCR, truncated Cα for CH1, truncated Cβ for CL) (antibody, IgG-TCR format with IgG4PAA hinge-Fc) heavy: not shown light: DIVMTQTPLSLSVTPGQPASISCRSSRSLVHSRGNTYLHWYLQKPGQSPQLLIYKVSNRFIGVPDRFSGSGSGTDFTLKISRVEAEDVGVYYCSQSTHLPFTFGQGTKLEIKKVFPPEVAVFEPSEAEISHTQKATLVCLATGFFPDHVELSWWVNGKEVHSGVSTDPQPLKEQPALNDSRYCLSSRLRVSATFWQNPRNHFRCQVQFYGLSENDEWTQDRAKPVTQIVSAEAWGRADCGFTS	–
35%	TCR6 (anti-IL-17 IgG-TCR, Cα for CH1, truncated Cβ for CL) (antibody, IgG-TCR format with IgG4PAA hinge-Fc) heavy: not shown light: DIVMTQTPLSLSVTPGQPASISCRSSRSLVHSRGNTYLHWYLQKPGQSPQLLIYKVSNRFIGVPDRFSGSGSGTDFTLKISRVEAEDVGVYYCSQSTHLPFTFGQGTKLEIKKVFPPEVAVFEPSEAEISHTQKATLVCLATGFFPDHVELSWWVNGKEVHSGVSTDPQPLKEQPALNDSRYCLSSRLRVSATFWQNPRNHFRCQVQFYGLSENDEWTQDRAKPVTQIVSAEAWGRADCGFTS	–
48%	TCR8 (anti-IL-17 IgG-TCR, truncated Cα for CH1, Cβ for CL) (antibody, IgG-TCR format with IgG4PAA hinge-Fc) heavy: not shown light: DIVMTQTPLSLSVTPGQPASISCRSSRSLVHSRGNTYLHWYLQKPGQSPQLLIYKVSNRFIGVPDRFSGSGSGTDFTLKISRVEAEDVGVYYCSQSTHLPFTFGQGTKLEIKEDLNKVFPPEVAVFEPSEAEISHTQKATLVCLATGFFPDHVELSWWVNGKEVHSGVSTDPQPLKEQPALNDSRYCLSSRLRVSATFWQNPRNHFRCQVQFYGLSENDEWTQDRAKPVTQIVSAEAWGRADCGFTS	–
100%	anti-human IL-17 IgG4/κ antibody (antibody, Parent IgG4/kappa antibody of the IgG-TCR constructs TCR1-TCR8; also called Anti-IL17/IgG4; Anti-17 IgG4) heavy: not shown light: DIVMTQTPLSLSVTPGQPASISCRSSRSLVHSRGNTYLHWYLQKPGQSPQLLIYKVSNRFIGVPDRFSGSGSGTDFTLKISRVEAEDVGVYYCSQSTHLPFTFGQGTKLEIKRTVAAPSVFIFPPSDEQLKSGTASVVCLLNNFYPREAKVQWKVDNALQSGNSQESVTEQDSKDSTYSLSSTLTLSKADYEKHKVYACEVTHQGLSSPVTKSFNRGEC	–
